{"source": "the supplement of paper PMC6755084", "parents": {"B1": {"name": "minF1; the commonest letter at each place (parent)", "chain": "GAGACCGCAACTGAAAAGTTGTTATCAGAAATGGATGGGTTGAATTTCTGCACGTAGAAGCAAAAGGC"}}}
{"variants_of": "B1", "assay": "fraction ligated after 30 min (ligated reads / total reads); higher = more ligase activity", "details": "with F1*subA RNA substrate (template-directed ligation), 42 °C", "outline": "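Oligo-pool templates of minimized ligase ribozyme variants were PCR-amplified, T7-transcribed and gel-purified. Ligated and unligated RNAs were gel-separated, reverse transcribed with barcoded primers, and MiSeq-sequenced; core bases were filtered at quality ≥30. Fraction ligated per variant was ligated reads over total reads.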"}
{"variant": "A29G A31C", "fraction ligated": 0.803}
{"variant": "A29G A31T", "fraction ligated": 0.812}
{"variant": "A29G A31G", "fraction ligated": 0.795}
{"variant": "G28C T36C", "fraction ligated": 0.0172}
{"variant": "G28C T36G", "fraction ligated": 0.0324}
{"variant": "G28C T36A", "fraction ligated": 0.0306}
{"variant": "A29C", "fraction ligated": 0.823}
{"variant": "A29T", "fraction ligated": 0.815}
{"variant": "A29G", "fraction ligated": 0.827}
{"variant": "A29G T36A", "fraction ligated": 0.0285}
{"variant": "A29G T36C", "fraction ligated": 0.0189}
{"variant": "A29G T36G", "fraction ligated": 0.0397}
{"variant": "A29G G42T", "fraction ligated": 0.096}
{"variant": "A29G G42C", "fraction ligated": 0.00737}
{"variant": "A29G G42A", "fraction ligated": 0.28}
{"variant": "A29C A35C", "fraction ligated": 0.00361}
{"variant": "A29C A35T", "fraction ligated": 0.012}
{"variant": "A29C A35G", "fraction ligated": 0.189}
{"variant": "A29T A31G", "fraction ligated": 0.811}
{"variant": "A29T A31C", "fraction ligated": 0.798}
{"variant": "A29T A31T", "fraction ligated": 0.828}
{"variant": "A29C G42C", "fraction ligated": 0.00616}
{"variant": "A29C G42A", "fraction ligated": 0.283}
{"variant": "A29C G42T", "fraction ligated": 0.0826}
{"variant": "G28C A30G", "fraction ligated": 0.816}
{"variant": "G28C A30C", "fraction ligated": 0.817}
{"variant": "G28C A30T", "fraction ligated": 0.825}
{"variant": "G28T G42A", "fraction ligated": 0.359}
{"variant": "G28T G42T", "fraction ligated": 0.142}
{"variant": "G28T G42C", "fraction ligated": 0.017}
{"variant": "G28T A29G", "fraction ligated": 0.832}
{"variant": "G28T A29C", "fraction ligated": 0.784}
{"variant": "G28T A29T", "fraction ligated": 0.829}
{"variant": "A29G A44G", "fraction ligated": 0.753}
{"variant": "A29G A44C", "fraction ligated": 0.649}
{"variant": "A29G A44T", "fraction ligated": 0.76}
{"variant": "A29G G34A", "fraction ligated": 0.0509}
{"variant": "A29G G34C", "fraction ligated": 0.00249}
{"variant": "A29G G34T", "fraction ligated": 0.00809}
{"variant": "G28A T36C", "fraction ligated": 0.0146}
{"variant": "G28A T36G", "fraction ligated": 0.0443}
{"variant": "G28A T36A", "fraction ligated": 0.0244}
{"variant": "A29C G34T", "fraction ligated": 0.00671}
{"variant": "A29C G34A", "fraction ligated": 0.042}
{"variant": "A29C G34C", "fraction ligated": 0.00225}
{"variant": "G28C A43C", "fraction ligated": 0.0652}
{"variant": "G28C A43T", "fraction ligated": 0.0901}
{"variant": "G28C A43G", "fraction ligated": 0.0597}
{"variant": "G28T", "fraction ligated": 0.806}
{"variant": "G28C", "fraction ligated": 0.82}
{"variant": "G28A G33T", "fraction ligated": 0.593}
{"variant": "G28A G34T", "fraction ligated": 0.00746}
{"variant": "G28A G34A", "fraction ligated": 0.0882}
{"variant": "G28A G34C", "fraction ligated": 0.00587}
{"variant": "G28C T32G", "fraction ligated": 0.0241}
{"variant": "G28C T32A", "fraction ligated": 0.0353}
{"variant": "G28C T32C", "fraction ligated": 0.0192}
{"variant": "G28T A31T", "fraction ligated": 0.827}
{"variant": "G28T A31G", "fraction ligated": 0.82}
{"variant": "G28T A31C", "fraction ligated": 0.82}
{"variant": "G28T G37T", "fraction ligated": 0.0287}
{"variant": "G28T G37C", "fraction ligated": 0.00638}
{"variant": "G28T G37A", "fraction ligated": 0.00866}
{"variant": "A29G G33A", "fraction ligated": 0.8}
{"variant": "A29G G33T", "fraction ligated": 0.516}
{"variant": "A29G G33C", "fraction ligated": 0.709}
{"variant": "A29G G37T", "fraction ligated": 0.0206}
{"variant": "A29G G37C", "fraction ligated": 0.0058}
{"variant": "A29G G37A", "fraction ligated": 0.0118}
{"variant": "G28A T32C", "fraction ligated": 0.0224}
{"variant": "G28A T32A", "fraction ligated": 0.0454}
{"variant": "G28A T32G", "fraction ligated": 0.0134}
{"variant": "G28C A31G", "fraction ligated": 0.798}
{"variant": "G28C A31C", "fraction ligated": 0.664}
{"variant": "G28C A31T", "fraction ligated": 0.814}
{"variant": "G28C A29T A30T A31T", "fraction ligated": 0.752}
{"variant": "G28T A43G", "fraction ligated": 0.0967}
{"variant": "G28T A43C", "fraction ligated": 0.117}
{"variant": "G28T A43T", "fraction ligated": 0.158}
{"variant": "G28C A44T", "fraction ligated": 0.719}
{"variant": "G28C A44G", "fraction ligated": 0.674}
{"variant": "G28C A44C", "fraction ligated": 0.596}
{"variant": "A29C T32A", "fraction ligated": 0.0419}
{"variant": "A29C T32C", "fraction ligated": 0.0191}
{"variant": "A29C T32G", "fraction ligated": 0.0113}
{"variant": "G28T A30G", "fraction ligated": 0.835}
{"variant": "G28T A30T", "fraction ligated": 0.832}
{"variant": "G28T A30C", "fraction ligated": 0.819}
{"variant": "A29C T36A", "fraction ligated": 0.0288}
{"variant": "A29C T36C", "fraction ligated": 0.0172}
{"variant": "A29C T36G", "fraction ligated": 0.0261}
{"variant": "G28A G42T", "fraction ligated": 0.0941}
{"variant": "G28A G42C", "fraction ligated": 0.0107}
{"variant": "G28A G42A", "fraction ligated": 0.279}
{"variant": "G28T A35G", "fraction ligated": 0.437}
{"variant": "G28T A35T", "fraction ligated": 0.051}
{"variant": "G28T A35C", "fraction ligated": 0.0723}
{"variant": "A29G T32G", "fraction ligated": 0.0222}
{"variant": "A29G T32A", "fraction ligated": 0.0412}
{"variant": "A29G T32C", "fraction ligated": 0.0215}
{"variant": "G28C A29T", "fraction ligated": 0.831}
{"variant": "G28C A29C", "fraction ligated": 0.795}
{"variant": "G28C A29G", "fraction ligated": 0.812}
{"variant": "G28C G42C", "fraction ligated": 0.0102}
{"variant": "G28C G42A", "fraction ligated": 0.264}
{"variant": "G28C G42T", "fraction ligated": 0.0849}
{"variant": "G28C G37C", "fraction ligated": 0.0045}
{"variant": "G28C G37A", "fraction ligated": 0.0114}
{"variant": "G28C G37T", "fraction ligated": 0.0184}
{"variant": "A29C A44C", "fraction ligated": 0.607}
{"variant": "A29C A44T", "fraction ligated": 0.705}
{"variant": "A29C A44G", "fraction ligated": 0.748}
{"variant": "A29C G37T", "fraction ligated": 0.0129}
{"variant": "A29C G37A", "fraction ligated": 0.00482}
{"variant": "A29C G37C", "fraction ligated": 0.00528}
{"variant": "A29T A35C", "fraction ligated": 0.00991}
{"variant": "A29G A43T", "fraction ligated": 0.0936}
{"variant": "A29G A43G", "fraction ligated": 0.0803}
{"variant": "A29G A43C", "fraction ligated": 0.0987}
{"variant": "G28T T32C", "fraction ligated": 0.0326}
{"variant": "G28T T32A", "fraction ligated": 0.0381}
{"variant": "G28T T32G", "fraction ligated": 0.0263}
{"variant": "A29G A35C", "fraction ligated": 0.0139}
{"variant": "A29G A35G", "fraction ligated": 0.204}
{"variant": "A29G A35T", "fraction ligated": 0.023}
{"variant": "G28T G33T", "fraction ligated": 0.725}
{"variant": "G28T G33C", "fraction ligated": 0.764}
{"variant": "G28T G33A", "fraction ligated": 0.814}
{"variant": "G28C G34T", "fraction ligated": 0.00677}
{"variant": "G28C G34A", "fraction ligated": 0.109}
{"variant": "G28C G34C", "fraction ligated": 0.00831}
{"variant": "A29C A31T", "fraction ligated": 0.842}
{"variant": "A29C A31C", "fraction ligated": 0.791}
{"variant": "A29C A31G", "fraction ligated": 0.808}
{"variant": "G28C G33T", "fraction ligated": 0.639}
{"variant": "G28C G33A", "fraction ligated": 0.772}
{"variant": "G28C G33C", "fraction ligated": 0.641}
{"variant": "G28T A44T", "fraction ligated": 0.794}
{"variant": "G28T A44G", "fraction ligated": 0.759}
{"variant": "G28T A44C", "fraction ligated": 0.685}
{"variant": "G28T G34A", "fraction ligated": 0.141}
{"variant": "G28T G34T", "fraction ligated": 0.00519}
{"variant": "G28T G34C", "fraction ligated": 0.00596}
{"variant": "A29C A43G", "fraction ligated": 0.0549}
{"variant": "A29C A43T", "fraction ligated": 0.0813}
{"variant": "A29C A43C", "fraction ligated": 0.0193}
{"variant": "G28T T36A", "fraction ligated": 0.0434}
{"variant": "G28T T36G", "fraction ligated": 0.0726}
{"variant": "G28T T36C", "fraction ligated": 0.0288}
{"variant": "A29T A30G", "fraction ligated": 0.821}
{"variant": "A29T A30T", "fraction ligated": 0.789}
{"variant": "A29T A30C", "fraction ligated": 0.806}
{"variant": "G28C A35C", "fraction ligated": 0.0372}
{"variant": "G28C A35T", "fraction ligated": 0.0136}
{"variant": "G28C A35G", "fraction ligated": 0.0701}
{"variant": "A29G A30T", "fraction ligated": 0.817}
{"variant": "A29G A30G", "fraction ligated": 0.811}
{"variant": "A29G A30C", "fraction ligated": 0.84}
{"variant": "G28A G37A", "fraction ligated": 0.00676}
{"variant": "G28A G37T", "fraction ligated": 0.0166}
{"variant": "G28A G37C", "fraction ligated": 0.00899}
{"variant": "A29C G33T", "fraction ligated": 0.526}
{"variant": "A29C G33A", "fraction ligated": 0.784}
{"variant": "A29C G33C", "fraction ligated": 0.743}
{"variant": "A29C A30C", "fraction ligated": 0.563}
{"variant": "A29C A30T", "fraction ligated": 0.81}
{"variant": "A29C A30G", "fraction ligated": 0.827}
